Measured values: patent US20230331860A1

Columns and labels:
Assay in all cases: FcγR binding, SPR (method per paragraph 74)
[1] = biological target: cyCD64 (cynomolgus monkey)
[2] = biological target: cyCD32a (cynomolgus monkey)
[3] = biological target: cyCD32b (cynomolgus monkey)
hCD32a-R131 (human) = hCD32a-R131 (human) (UniProt P12318)
hCD16a-F158 (human) = hCD16a-F158 (human) (UniProt P08637)
hCD32a-H131 (human) = hCD32a-H131 (human) (UniProt P12318)
hCD32b (human) = hCD32b (human) (UniProt P31994)
Chain of hCD32b (human) (P31994 43-217 limits assumed): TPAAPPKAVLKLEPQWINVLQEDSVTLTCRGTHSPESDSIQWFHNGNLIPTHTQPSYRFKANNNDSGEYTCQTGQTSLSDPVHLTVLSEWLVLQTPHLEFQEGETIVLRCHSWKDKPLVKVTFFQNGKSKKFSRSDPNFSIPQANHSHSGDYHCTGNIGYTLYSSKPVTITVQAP

hCD16a-V158 (human) = hCD16a-V158 (human) (UniProt P08637)
Chain of hCD16a-V158 (human) (P08637 17-208 F176V limits assumed): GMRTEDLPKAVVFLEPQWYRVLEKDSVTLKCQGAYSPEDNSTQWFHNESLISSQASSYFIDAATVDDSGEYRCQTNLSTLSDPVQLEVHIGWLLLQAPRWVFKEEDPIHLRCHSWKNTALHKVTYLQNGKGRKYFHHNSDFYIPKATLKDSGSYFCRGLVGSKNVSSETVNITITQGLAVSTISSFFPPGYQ

hCD64 (human) = hCD64 (human) (UniProt P12314)
Chain of hCD64 (human) (P12314 16-288 limits assumed): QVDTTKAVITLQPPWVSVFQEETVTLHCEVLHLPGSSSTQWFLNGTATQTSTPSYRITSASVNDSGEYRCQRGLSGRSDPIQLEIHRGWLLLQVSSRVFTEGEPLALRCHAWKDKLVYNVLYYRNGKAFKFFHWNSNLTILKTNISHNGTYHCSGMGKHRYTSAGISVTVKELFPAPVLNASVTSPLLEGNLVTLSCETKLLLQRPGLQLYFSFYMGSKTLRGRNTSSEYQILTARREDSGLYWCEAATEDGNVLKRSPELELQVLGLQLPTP

[4] = biological target: cyCD16 (cynomolgus monkey) (UniProt Q8SPW2)
Chain of cyCD16 (cynomolgus monkey) (Q8SPW2 17-208 limits assumed): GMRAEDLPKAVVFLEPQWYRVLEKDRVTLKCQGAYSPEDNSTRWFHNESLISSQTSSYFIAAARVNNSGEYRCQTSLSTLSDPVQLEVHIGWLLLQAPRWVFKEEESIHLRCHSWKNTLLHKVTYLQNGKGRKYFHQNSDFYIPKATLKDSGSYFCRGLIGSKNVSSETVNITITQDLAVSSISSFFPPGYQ

Chain of BMS-986325 (antibody) (heavy): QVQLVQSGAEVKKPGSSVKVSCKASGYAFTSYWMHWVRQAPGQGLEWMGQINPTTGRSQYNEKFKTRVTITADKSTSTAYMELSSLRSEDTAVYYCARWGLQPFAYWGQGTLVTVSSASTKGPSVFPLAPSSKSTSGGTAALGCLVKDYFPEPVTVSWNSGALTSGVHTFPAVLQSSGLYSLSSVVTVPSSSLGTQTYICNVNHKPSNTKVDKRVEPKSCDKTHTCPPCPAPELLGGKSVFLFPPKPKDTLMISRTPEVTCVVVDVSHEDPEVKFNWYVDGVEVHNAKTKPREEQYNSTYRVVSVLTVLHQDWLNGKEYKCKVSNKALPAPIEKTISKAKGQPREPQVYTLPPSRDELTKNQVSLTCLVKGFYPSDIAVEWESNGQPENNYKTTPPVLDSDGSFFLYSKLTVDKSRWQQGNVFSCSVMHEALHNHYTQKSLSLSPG
Chain of BMS-986325 (antibody) (light): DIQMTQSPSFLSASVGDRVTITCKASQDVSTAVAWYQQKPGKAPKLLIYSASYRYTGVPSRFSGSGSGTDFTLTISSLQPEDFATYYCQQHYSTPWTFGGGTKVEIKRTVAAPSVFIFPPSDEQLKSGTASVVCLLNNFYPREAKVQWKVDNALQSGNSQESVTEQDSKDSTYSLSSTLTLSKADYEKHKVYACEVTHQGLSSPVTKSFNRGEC
Chain of hCD16a-F158 (human) (P08637 17-208 limits assumed): as the sequence (P08637 17-208 F176V limits assumed) above, with V160F counted along it
Chain of hCD32a-R131 (human) (P12318 36-218 H167R limits assumed): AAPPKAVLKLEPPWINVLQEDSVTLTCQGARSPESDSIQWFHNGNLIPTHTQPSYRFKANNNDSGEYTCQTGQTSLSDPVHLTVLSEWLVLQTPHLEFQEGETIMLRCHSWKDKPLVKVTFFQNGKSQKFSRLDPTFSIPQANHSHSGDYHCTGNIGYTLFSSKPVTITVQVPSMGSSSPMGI
Chain of hCD32a-H131 (human) (P12318 36-218 limits assumed): as the sequence (P12318 36-218 H167R limits assumed) above, with R132H counted along it

Kd [1] | fold weaker binding than wild-type human IgG1 control [1] | Kd [2] | Kd [3] | Kd (hCD32a-R131 (human)) | Kd (hCD16a-F158 (human)) | Kd (hCD32a-H131 (human)) | Kd (hCD32b (human)) | Kd (hCD16a-V158 (human)) | Kd (hCD64 (human)) | Kd [4] | Substance
13 nM | 100 fold | – | – | – | – | – | – | – | – | – | BMS-986325 (antibody)
< 0.1 nM | – | 1520 nM | 877 nM | 665 nM | 4430 nM | 446 nM | 3090 nM | 119 nM | < 0.1 nM | 164 nM | wild-type human IgG1 control (antibody)
